Assay results as given in patent publication US20210253718A1, “FRIZZLED5 PROTEIN-BINDING AGENTS” (Modmab Therapeutics Corporation, priority 2016, published 2021).
Positions count from the first letter of the chain named.

T1: FZD3 CRD (Homo sapiens, UniProt Q9NPG1)
T1 construct: CRD of FZD1, FZD2, FZD3, FZD4, FZD5, FZD6, FZD7, FZD8, FZD9 or FZD10; GPI anchor signal (C); expressed in transfected cells; host or cells: CHO cells, lentiviral pLenti-puro
T1 sequence (Q9NPG1 23-136 limits assumed): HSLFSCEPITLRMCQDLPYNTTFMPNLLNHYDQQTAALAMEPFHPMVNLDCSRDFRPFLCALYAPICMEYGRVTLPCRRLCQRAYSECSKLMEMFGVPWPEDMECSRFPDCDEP

T2: FZD8 CRD (Homo sapiens, UniProt Q9H461)
T2 construct: K31-D155; GPI anchor signal (C); expressed in transfected cells; host or cells: CHO cells, lentiviral pLenti-puro
T2 sequence (Q9H461 31-155): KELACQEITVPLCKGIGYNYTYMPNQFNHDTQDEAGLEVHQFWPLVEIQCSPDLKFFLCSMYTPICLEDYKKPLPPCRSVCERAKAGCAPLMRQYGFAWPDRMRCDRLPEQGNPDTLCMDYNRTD

B1: Fab-2901: anti-FZD5 Fab with antibody variable region Fv-2901; CDR SEQ ID NOs: 35, 36, 40, 79, 116, 154 (antibody, V domains shown)
VH: EVQLVESGGGLVQPGGSLRLSCAASGFNISYSYMHWVRQAPGKGLEWVASIYSYSSYTYYADSVKGRFTISADTSKNTAYLQMNSLRAEDTAVYYCARSWYYWSPSSGMDYWGQGTLVTVSS
VL: DIQMTQSPSSLSASVGDRVTITCRASQSVSSAVAWYQQKPGKAPKLLIYSASSLYSGVPSRFSGSRSGTDFTLTISSLQPEDFATYYCQQGGFLITFGQGTKVEIK
B2: Fab-2903: anti-FZD5 Fab with antibody variable region Fv-2903; CDR SEQ ID NOs: 35, 36, 42, 81, 118, 155 (antibody, V domains shown)
VH: EVQLVESGGGLVQPGGSLRLSCAASGFNLSYYYIHWVRQAPGKGLEWVASIYPYSSYTSYADSVKGRFTISADTSKNTAYLQMNSLRAEDTAVYYCARGAIDYWGQGTLVTVSS
VL: DIQMTQSPSSLSASVGDRVTITCRASQSVSSAVAWYQQKPGKAPKLLIYSASSLYSGVPSRFSGSRSGTDFTLTISSLQPEDFATYYCQQWGGGSSLFTFGQGTKVEIK
B3: Fab-2930: anti-FZD5 Fab with antibody variable region Fv-2930; CDR SEQ ID NOs: 35, 36, 69, 107, 145, 153 (antibody, V domains shown)
VH: B2 VH with S56G, Y57S, I101L
VL: DIQMTQSPSSLSASVGDRVTITCRASQSVSSAVAWYQQKPGKAPKLLIYSASSLYSGVPSRFSGSRSGTDFTLTISSLQPEDFATYYCQQWYGPYLITFGQGTKVEIK
B4: Fab-2936: anti-FZD5 Fab with antibody variable region Fv-2936; CDR SEQ ID NOs: 35, 36, 75, 112, 151, 179 (antibody, V domains shown)
VH: B2 VH with L29I, I34M, P53S, Y54S, S56G, Y57S, G99A, I101M
VL: B3 VL with G93A, P94A, Y95S
B5: Fab-2926: anti-FZD5 Fab with antibody variable region Fv-2926; CDR SEQ ID NOs: 35, 36, 65, 103, 141, 173 (antibody, V domains shown)
VH: B2 VH with L29I, S30Y, Y31S, Y32S, I34M, Y54S, Y57S, A100G, I101L
VL: B2 VL with G92Y, G93H, S95G

These molecules were tested on PATU8988S cells (assay: Effect of anti-FZD5 Fabs on proliferation of pancreatic cancer cell lines (percent growth inhibition)). Conditions: Fab 10 μg/ml.
Type: cell-based, human
Procedure: (§1) The effect of presently disclosed anti-FZD5 Fabs on proliferation of RNF43 loss-of-function mutant pancreatic cancer cell lines HPAFII, PATU8988S and ASPC-1; and on pancreatic cancer cell line RWP1, was tested at […] and 10 μg/ml.
With B1 the “percent growth inhibition, PATU8988s 10 μg/ml” value was −6.65%. With B2 the “percent growth inhibition, PATU8988s 10 μg/ml” value was −16.37%. B3 was tested, and the “percent growth inhibition, PATU8988s 10 μg/ml” value was −13.64%. With B4 the “percent growth inhibition, PATU8988s 10 μg/ml” value was −23.52%. With B5 the “percent growth inhibition, PATU8988s 10 μg/ml” value was −36.54%.

Each molecule was assayed on RWP1 cells in the same assay as above. Conditions: Fab 10 μg/ml.
Type: cell-based, human
Procedure: as §1
B1 was tested, and the “percent growth inhibition, RWP1 10 μg/ml” value was 21.10%. B2 was tested, and the “percent growth inhibition, RWP1 10 μg/ml” value was 17.38%. For B3, the “percent growth inhibition, RWP1 10 μg/ml” value was 10.72%. For B4, the “percent growth inhibition, RWP1 10 μg/ml” value was −5.97%. With B5 the “percent growth inhibition, RWP1 10 μg/ml” value was 40.20%.

What follows are molecules tested on ASPC-1 cells in the same assay as above. Conditions: Fab 10 μg/ml.
Type: cell-based, human
Procedure: as §1
With B1 the “percent growth inhibition, ASPC-1 10 μg/ml” value was 11.26%. For B2, the “percent growth inhibition, ASPC-1 10 μg/ml” value was 14.86%. For B3, the “percent growth inhibition, ASPC-1 10 μg/ml” value was 37.33%. B4 was tested, and the “percent growth inhibition, ASPC-1 10 μg/ml” value was 22.02%. For B5, the “percent growth inhibition, ASPC-1 10 μg/ml” value was 24.71%.

What follows are molecules tested on HPAFII cells in the same assay as above. Conditions: Fab 2 μg/ml.
Type: cell-based, human
Procedure: as §1
B1 was tested, and the “percent growth inhibition, HPAFII 2 μg/ml” value was 6.38%. With B2 the “percent growth inhibition, HPAFII 2 μg/ml” value was −10.34%. B3 was tested, and the “percent growth inhibition, HPAFII 2 μg/ml” value was −10.77%. With B4 the “percent growth inhibition, HPAFII 2 μg/ml” value was −0.56%. For B5, the “percent growth inhibition, HPAFII 2 μg/ml” value was −6.88%.

Same assay, conditions: Fab 10 μg/ml
For B1, the “percent growth inhibition, HPAFII 10 μg/ml” value was 12.31%. With B2 the “percent growth inhibition, HPAFII 10 μg/ml” value was −10.98%. With B3 the “percent growth inhibition, HPAFII 10 μg/ml” value was 7.81%. For B4, the “percent growth inhibition, HPAFII 10 μg/ml” value was 12.21%. With B5 the “percent growth inhibition, HPAFII 10 μg/ml” value was 4.88%.

The molecules below were run against T3, FZD2 CRD (Homo sapiens, UniProt Q14332) (assay: Flow cytometry of anti-FZD5 Fab binding to CHO cells overexpressing Frizzled CRD). Conditions: not given.
T3 construct: D35-P161; GPI anchor signal (C); expressed in transfected cells; host or cells: CHO cells, lentiviral pLenti-puro
Procedure: Plasmids: pLCKO lentiviral vector used for knockout (TKO) library construction and expression of individual gRNAs was constructed as described previously (Hart et al., 2015). Briefly, single guide RNA (sgRNA) scaffold was amplified from px330 (Addgene 42230) and cloned into pLKO.TRC005 lentiviral vector (Broad Institute, Cambridge, Mass.) using AgeI/EcoRI restriction sites. BfuAI sites were added at the 5′ end of the sgRNA scaffold for cloning the TKO library or individual gRNA target sequences. Lenti Cas9-2A-BsdR vector used to generate Cas9 stable expression cell lines was constructed as described previously (Hart et al., 2015). Briefly, lentiCRISPR pXPR_001 (Addgene 49535) was modified through removal of the sgRNA scaffold region through NdeI/EcoRI digest and blunt ends generation using Large Klenow Fragment (NEB). 2A-puro was replaced with 2A-BsdR by PCR using the NheI/MluI sites. Each of the 10 human Frizzled cysteine rich domains (CRDs) were cloned into the lentiviral expression plasmid pLenti-puro in the following cassette: FZD_CRD-MYC-GPI.
Flow cytometry: Primary staining of cells was performed by treatment with 200 nM Frizzled profiler Fab. Alexa Fluor 488 AffiniPure F(ab′)2 was used as the secondary antibody (Jackson ImmunoResearch #109-546-097). c-Myc (9E10) IgG1 (primary antibody, Santa Cruz, lot #D0306) and Alexa Fluor 488 IgG (secondary antibody, Life technologies, lot #1458649) were used as controls. Dead cells were excluded by staining with Fixable Viability Dye eFluor 660 (eBioscience, catalogue number 65-0864). All reagents were used as per manufacturer's instructions. Flow cytometry was performed on a BD FACSCanto II flow cytometer (BD Biosciences), and data were analyzed with FlowJo software (FlowJo, LLC).
To confirm that the FZD5-WNT7B circuit is not driven simply by expression and rule out the possibility of a disconnect between RNA and protein levels for the Wnt receptors in HPAF-II cells, a panel of recombinant Fabs were generated, alternatively referred to herein as ‘Frizzled profiler’, that can detect and discriminate all but one of the ten Frizzled receptors. […] To characterize the binding specificity of these Fabs on cells, a panel of 10 CHO cell lines was generated, each expressing the CRD domain of a different myc-tagged Frizzled family member anchored at the plasma membrane through a GPI anchor (CHO-myc-FZDGPI). Despite the high sequence identity between Frizzled family members (FIG. 7A, FIG. 7B), selective Fabs were identified for FZD4, FZD5, FZD6 and FZD10 as assessed by immunofluorescence and flow cytometry (FIG. 7D and FIG. 8). […] The FZD8 CRD is most homologous to that of FZD5 (FIG. 7B). These Fabs can be used to discriminate expression of FZD1, FZD2, FZD4, FZD5, FZD6, FZD7, FZD8, FZD9 and FZD10 (FIG. 7D and FIG. 8). The ‘Frizzled profiler’ therefore consists of 10 different Fabs that can be used to discriminate expression of 9 different Frizzled family members. The Frizzled profiler was then used to confirm that HPAF-II cells express FZD1, FZD5, FZD6 and possibly FZD8 (FIG. 7E).
The binding of anti-FZD5 Fabs to cell surface-expressed Frizzled protein was further determined for each member of the Frizzled family via flow cytometry and immunofluorescence analysis of a panel of 10 CHO cell lines, each ectopically over-expressing the extracellular cysteine-rich domain (CRD) of a different Frizzled protein family member.
B1 was tested, and the “Median fluorescence, Frizzled CRD overexpressed on CHO cells: FZD2” value (“Median fluorescence” for short) was 13.95. With B2 the “Median fluorescence” value was 10.84. In the case of B3, the “Median fluorescence” value is reported as 11.44.

Each molecule was assayed against T1, FZD3 CRD (assay: Immunofluorescence of anti-FZD5 Fab binding to CHO cells overexpressing Frizzled CRD). Conditions: not given.
Design: key: −: no binding; +: very weak binder; ++: weak binder; +++: good binder; ++++: very good binder
Method in brief: (§2)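 CHO panel, 10 lines, each w/ one human FZD CRD-myc-GPI (lentiviral). Anti-FZD5 Fabs applied; surface binding scored by IF, cross-checked by FACS.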
In the case of B1, the “Immunofluorescence binding, Frizzled CRD overexpressed on CHO cells: FZD3” value (from here on “Immunofluorescence binding … FZD3”) is reported as “−”. B2 was tested, and the “Immunofluorescence binding … FZD3” value was “−”. With B3 the “Immunofluorescence binding … FZD3” value was “−”. In the case of B4, the “Immunofluorescence binding … FZD3” value is reported as “−”. With B5 the “Immunofluorescence binding … FZD3” value was “−”.

Each molecule was assayed against T2, FZD8 CRD in the same assay as above. Conditions: not given.
Design: key: −: no binding; +: very weak binder; ++: weak binder; +++: good binder; ++++: very good binder
Method in brief: as §2
For B1, the “Immunofluorescence binding, Frizzled CRD overexpressed on CHO cells: FZD8” value (“Immunofluorescence binding … FZD8” below) was “+”. With B2 the “Immunofluorescence binding … FZD8” value was “+”. With B3 the “Immunofluorescence binding … FZD8” value was “+”. B4 was tested, and the “Immunofluorescence binding … FZD8” value was “+”. For B5, the “Immunofluorescence binding … FZD8” value was “+”.

The molecules below were run against T4, FZD1 CRD (Homo sapiens, UniProt Q9UP38) in the same assay as above. Conditions: not given.
T4 construct: D112-P238; GPI anchor signal (C); expressed in transfected cells; host or cells: CHO cells, lentiviral pLenti-puro
Design: key: −: no binding; +: very weak binder; ++: weak binder; +++: good binder; ++++: very good binder
Method in brief: as §2
With B2 the “Immunofluorescence binding, Frizzled CRD overexpressed on CHO cells: FZD1” value (shortened to “Immunofluorescence binding … FZD1”) was “+”. In the case of B3, the “Immunofluorescence binding … FZD1” value is reported as “−”. B4 was tested, and the “Immunofluorescence binding … FZD1” value was “−”. In the case of B5, the “Immunofluorescence binding … FZD1” value is reported as “−”.

These molecules were tested against T5, FZD7 CRD (Homo sapiens, UniProt O75084) in the same assay as above. Conditions: not given.
T5 construct: D45-S169; GPI anchor signal (C); expressed in transfected cells; host or cells: CHO cells, lentiviral pLenti-puro
Design: key: −: no binding; +: very weak binder; ++: weak binder; +++: good binder; ++++: very good binder
Method in brief: as §2
In the case of B1, the “Immunofluorescence binding, Frizzled CRD overexpressed on CHO cells: FZD7” value (from here on “Immunofluorescence binding … FZD7”) is reported as “+”. For B2, the “Immunofluorescence binding … FZD7” value was “++”. B3 was tested, and the “Immunofluorescence binding … FZD7” value was “+”. For B4, the “Immunofluorescence binding … FZD7” value was “−”. With B5 the “Immunofluorescence binding … FZD7” value was “−”.
